This data set has as its target alpha-1 antichymotrypsin (ACT, Sigma Chemical Co.) (UniProt P01011).

alpha-1 antichymotrypsin (ACT, Sigma Chemical Co.), sequence (P01011 24-423): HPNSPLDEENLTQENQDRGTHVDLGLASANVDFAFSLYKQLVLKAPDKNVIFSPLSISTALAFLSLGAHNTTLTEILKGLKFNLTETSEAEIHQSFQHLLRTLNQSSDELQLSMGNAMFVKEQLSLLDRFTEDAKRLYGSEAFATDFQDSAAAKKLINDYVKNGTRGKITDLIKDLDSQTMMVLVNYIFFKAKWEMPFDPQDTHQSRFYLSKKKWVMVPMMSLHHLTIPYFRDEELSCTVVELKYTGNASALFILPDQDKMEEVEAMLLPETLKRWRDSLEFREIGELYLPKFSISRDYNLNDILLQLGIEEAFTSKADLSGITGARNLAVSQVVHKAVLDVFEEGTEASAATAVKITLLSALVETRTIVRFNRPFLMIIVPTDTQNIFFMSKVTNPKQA

On to “Human Prostate-Specific Antigen (purified human PSA, Vitro Diagnostics)”, for which the “proteolytic (serine protease) activity of PSA on synthetic substrate S-2586, absorbance at 405 nm” value was “preincubation of PSA with ACT blocked both serine protease activity of purified PSA (FIG. 11)”.

Values taken from patent US20030012792.
